Results: US12365732 (23ANDME, dated 2025)

T1: hu-CD96 (soluble, isoform 2 extracellular domain) (human, UniProt P40200 22-516, biotinylated in Octet and blocking ELISA)
T1 construct: the assays name only hu-CD96; also called hCD96; biotinylated hu-CD96
T1 sequence: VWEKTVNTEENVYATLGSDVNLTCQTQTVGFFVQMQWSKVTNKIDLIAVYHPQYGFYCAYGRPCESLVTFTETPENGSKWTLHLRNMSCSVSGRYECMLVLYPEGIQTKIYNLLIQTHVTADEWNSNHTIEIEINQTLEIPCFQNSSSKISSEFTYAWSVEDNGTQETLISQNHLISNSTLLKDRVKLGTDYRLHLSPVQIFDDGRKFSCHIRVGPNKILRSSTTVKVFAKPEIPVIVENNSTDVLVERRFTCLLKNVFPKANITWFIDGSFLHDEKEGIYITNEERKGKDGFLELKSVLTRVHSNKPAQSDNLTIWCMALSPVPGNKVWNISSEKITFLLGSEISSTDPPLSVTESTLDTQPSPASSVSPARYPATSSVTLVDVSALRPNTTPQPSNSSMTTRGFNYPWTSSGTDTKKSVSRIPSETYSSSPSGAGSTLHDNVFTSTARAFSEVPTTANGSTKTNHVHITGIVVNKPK

T2: mo-CD96 (soluble, Table 5) (mouse, UniProt Q3U0X8 22-536, limits assumed)
T2 sequence (looked up): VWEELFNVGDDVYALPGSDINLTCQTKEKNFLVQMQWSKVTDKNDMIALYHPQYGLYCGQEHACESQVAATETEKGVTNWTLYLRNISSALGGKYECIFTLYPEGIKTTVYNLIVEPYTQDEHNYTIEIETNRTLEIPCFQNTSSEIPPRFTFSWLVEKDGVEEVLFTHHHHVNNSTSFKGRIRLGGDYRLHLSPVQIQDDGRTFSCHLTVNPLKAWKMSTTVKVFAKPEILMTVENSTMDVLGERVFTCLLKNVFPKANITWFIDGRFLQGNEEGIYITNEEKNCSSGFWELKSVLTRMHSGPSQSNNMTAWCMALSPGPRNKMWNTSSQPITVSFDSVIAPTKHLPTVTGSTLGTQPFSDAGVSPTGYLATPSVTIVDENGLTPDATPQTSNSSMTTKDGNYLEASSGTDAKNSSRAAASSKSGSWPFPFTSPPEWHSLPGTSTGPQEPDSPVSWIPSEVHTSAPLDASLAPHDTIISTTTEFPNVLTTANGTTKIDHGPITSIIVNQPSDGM

T3: cynomolgus monkey CD96 on cynomolgus monkey PBMCs (cynomolgus monkey, UniProt A0A2K5TWV6 22-569)
T3 construct: whole, on cells
T3 sequence: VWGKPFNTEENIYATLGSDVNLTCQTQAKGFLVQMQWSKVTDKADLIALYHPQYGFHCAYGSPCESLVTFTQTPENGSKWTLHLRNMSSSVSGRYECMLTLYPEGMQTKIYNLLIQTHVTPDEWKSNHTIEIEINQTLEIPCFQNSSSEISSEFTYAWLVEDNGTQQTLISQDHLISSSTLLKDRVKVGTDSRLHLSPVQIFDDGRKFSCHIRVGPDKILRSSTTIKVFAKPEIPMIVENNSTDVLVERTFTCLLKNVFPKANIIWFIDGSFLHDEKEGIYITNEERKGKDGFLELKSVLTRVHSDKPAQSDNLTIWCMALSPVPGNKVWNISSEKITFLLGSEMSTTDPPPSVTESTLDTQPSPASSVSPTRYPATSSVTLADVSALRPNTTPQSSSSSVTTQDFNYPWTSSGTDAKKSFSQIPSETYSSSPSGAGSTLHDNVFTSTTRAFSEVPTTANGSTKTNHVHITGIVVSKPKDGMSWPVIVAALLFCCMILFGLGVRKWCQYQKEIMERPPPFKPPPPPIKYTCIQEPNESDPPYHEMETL


Key:
[1] = biological target: T1, hu-CD96 (soluble, isoform 2 …); assay: SPR 25C, IgG on Protein A, CD96 analyte
Description: (§1) SPR measurement with a BIACORE™ 8K instrument was performed to determine the monovalent binding affinity of mAb1.v7 and h10G1 IgG to hu-CD96, cy-CD96, and mo-CD96. Briefly, antibodies were diluted at 0.5 µg/mL in HBS-P buffer (0.01 M HEPES pH 7.4, 0.15 M NaCl, 0.005% Surfactant P20) and applied to the Protein A chip at 30 µL/min flow rate for 60 s in flow cell 2 (FC2). Then 3-fold serial dilutions of hu-CD96, cy-CD96, or mo-CD96 in HBS-P buffer (0.01 M HEPES pH 7.4, 0.15 M NaCl, 0.005% surfactant P20) from (0.4 nM) to high (100 nM) were injected (flow rate: 30 µL/min) at 25° C. to both flow cell 1 (FC1) and flow cell 2 (FC2). The sensorgram was recorded and subject to reference and buffer subtraction before evaluating by BIACORE® 8K Evaluation Software (version 1.1.1.7442). Association rates ($kon$) and dissociation rates ($koff$) were calculated using a simple one-to-one Langmuir binding model.

[2] = biological target: T2, mo-CD96 (soluble, Table 5); assay: SPR 25C, IgG on Protein A, CD96 analyte
Description: as §1

huCD96D1-Fc = huCD96D1-Fc (human); assay: Octet, antibody on anti-Fc sensors
Chain of huCD96D1-Fc (human) (chain, as listed by the source limits assumed): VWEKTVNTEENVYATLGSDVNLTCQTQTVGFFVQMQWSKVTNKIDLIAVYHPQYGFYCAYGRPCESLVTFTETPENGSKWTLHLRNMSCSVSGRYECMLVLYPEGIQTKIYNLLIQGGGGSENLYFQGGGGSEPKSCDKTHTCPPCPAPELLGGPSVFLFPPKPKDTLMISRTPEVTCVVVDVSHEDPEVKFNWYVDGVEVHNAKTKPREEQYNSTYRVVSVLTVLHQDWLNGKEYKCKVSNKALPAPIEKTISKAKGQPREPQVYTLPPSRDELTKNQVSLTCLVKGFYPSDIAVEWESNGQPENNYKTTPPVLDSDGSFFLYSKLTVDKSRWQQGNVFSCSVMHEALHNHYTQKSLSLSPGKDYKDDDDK
Description: Domain Binding Site Mapping mAb1.v7 and h10G1 were determined to bind the D1 domain of CD96. Epitope mapping experiments were performed on an OctetRed96 by capturing the antibodies on anti-Fc Octet sensors (ForteBio) and testing their binding to recombinant huCD96D1-Fc and huCD96D1D3.

[3] = biological target: T3, cynomolgus monkey CD96 on cynomolgus …; assay: FACS, Ab 0.0256 nM
Description: (§2) The ability of the anti-CD96 antibodies to bind primary immune cells from human and cynomolgus monkey with lower level of receptor expression was measured. Human PBMCs (StemCell Technologies, catalog #70025) and cynomolgus monkey PBMCs (Primate Biologicals, catalog #CM-MC) were incubated with human TruStain FcX (Biolegend, catalog #422302) for 10 minutes at 4° C., followed by incubation with an anti-CD96 antibody for 20 minutes at 4° C. Cells were washed and the anti-CD96 antibody binding was detected by incubation with anti-mouse IgG-PE (Thermo Fisher, catalog #M30204) or anti-human IgG (Fab) 2-PE (Thermo Fisher, catalog #H10104) for 20 minutes at 4° C. Cells were washed, and immune subtypes were labeled with anti-CD3 (BD, catalog #557705), anti-CD4 (Biolegend, catalog #317424) and anti-CD8 (BD, catalog #557760) for 20 minutes at 4° C. Cell binding was analyzed by flow cytometry with a CytoFLEX (Beckman Coulter). Binding curves were calculated as a percentage of cells positive for bound antibody in the cell type of interest.

[4] = biological target: T3, cynomolgus monkey CD96 on cynomolgus …; assay: FACS, Ab 3.2 nM
Description: as §2

Binder	Kd [1] [nM]	Kd [2] [nM]	binding result (huCD96D1-Fc)	% positive [3] [%]	% positive [4] [%]	apparent Kd (pooled screen) [1] [nM]	binding result [2]
mAb1.v7 IgG (humanized 12F8) (antibody, V domains shown, human IgG1 N297G) VH: EVQLVQSGAEVKKPGASVKVSCKASGFTFTNNWMHWVRQAPGQGLEWIGMIHPNSGITNINEKFKNRVTMTTDTSTSTAYMELRSLRSEDTAVYYCRSDGTYEGYFDYWGQGTLVTVSS VL: DIQLTQSPSSLSASVGDRVTITCKASQNVGTAIVWYQQKPGKAPKVLIYSASTRYTGVPSRFSGSGSGTDFTLTISSLQPEDFATYYCQQYSSSPLTFGQGTKVEIKG	4.49	~386	binds				
mAb1.v7.NGS9 IgG (antibody, V domains shown, human IgG1 N297G) VH: EVQLVQSGAEVKKPGASVKVSCKASGFTFTNNFMHWVRQAPGQGLEWIGMIHANSGITNINEKFKNRVTMTTDTSTSTAYMELRSLRSEDTAVYYCRSDGVYEGYFDYWGQGTLVTVSS VL: DIQLTQSPSSLSASVGDRVTITCKASQNVGTAIVWYQQKPGKAPKVLIYSASTRYTGVPSRFSGSGSGTDFTLTISSLQPEDFATYYCQQYSSSPLTFGQGTKVEIKG				19.7	77.9		
mAb1.v7.NGS10 IgG (antibody, V domains shown, human IgG1 N297G) VH: EVQLVQSGAEVKKPGASVKVSCKASGFTFTNNFMHWVRQAPGQGLEWIGFIHANSGITNINEKFKNRVTMTTDTSTSTAYMELRSLRSEDTAVYYCRSDGIYEGYFDYWGQGTLVTVSS VL: DIQLTQSPSSLSASVGDRVTITCKASQNVGTAIVWYQQKPGKAPKVLIYSASTRYTGVPSRFSGSGSGTDFTLTISSLQPEDFATYYCQQYSSSPLTFGQGTKVEIKG				37.2	76.7		
mAb1.v7.NGS11 IgG (antibody, V domains shown, human IgG1 N297G) VH: EVQLVQSGAEVKKPGASVKVSCKASGFTFTNNFMHWVRQAPGQGLEWIGFIHANSGITNINEKFKNRVTMTTDTSTSTAYMELRSLRSEDTAVYYCRSDGVYEGYFDYWGQGTLVTVSS VL: DIQLTQSPSSLSASVGDRVTITCKASQNVGTAIVWYQQKPGKAPKVLIYSASTRYTGVPSRFSGSGSGTDFTLTISSLQPEDFATYYCQQYSSSPLTFGQGTKVEIKG				41	78.4		
h10G1 IgG (humanized 10G1) (antibody, V domains shown, human IgG1 N297G) VH: EIQLVQSGSELKKPGASVKVSCKASGYPFTTYGMSWVRQAPGQGLEWMGWINTDSGVPTYADDFKGRFVFSLDTSVSTAYLQISSLKAEDTAVYFCARNIYYGWGNFDYWGQGTLVTVSS VL: EIVMTQSPDFQSVTPKEKVTITCRASQDIYRNLHWYQQKPDQTPKLLIKHASDSISGIPSRFSGSGSGTDFTLTINSLEAEDAAAYYCLQGYSMPYTFGGGTKVEIKG			binds	16.8	58.1	1.17	no binding (tested: 100 nM highest)
